Experimental data taken from the nanobody polyreactivity screen of Harvey et al. (2022).

test: yeast display, Sf9 membrane polyspecificity reagent, FACS + sequencing; frameworks hold sequencing errors
Procedure, shortened: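 Nanobodies came from a synthetic yeast display library in Saccharomyces cerevisiae BJ5465, induced with galactose for 36–48 hours and stained for 1 hour at 4 °C with 10% biotinylated, detergent-solubilized Sf9 membrane reagent. Cells were enriched on streptavidin microbeads and then FACS-sorted, with low and high (top ~1%) gates set on anti-HA fluorescence for expression and streptavidin fluorescence for reagent binding. Each polyreactivity label reflects the gate a clone came from. Genes were amplified by colony PCR, sequenced by MiSeq 2 × 250 and filtered by CDR length.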

| Sequence | polyreactivity (PSR sort gate) |
| --- | --- |
| QVQLVESGGGLVQAGGSLRLSCAASGSTFNDYAMGWYRQAPGNERELVAGITWRGTSTYYADSVKGRFTISRDNAKNTVYLQMNSLKPEDTAVYYCNADHVYGGYQYDFDYWGQGTQVTVSS | low polyreactivity |
| QVQLVESGGGLVQAGGSLRLSCAASGSTFNDYVMGWYRKAPGKERELVAAISRSGGSTYYADSVKGRFTISRDNAKNTVYIQMNSLKPEDTAFYYCNSDVGYWWGYYGYDYWGQGTQVTVSS | high polyreactivity |
| QVQLVESGGGLVQAGGSLRLSCAASGSTFNGNVMGWYRQAPGKDRELVAGISKSGGTTYYADSVKGRFTISRDNAKNTVYLQMNSLKPEDTAVYYCDARGRVRYYPQYDYWGQGTQVTVSS | high polyreactivity |
| QVQLVESGGGLVQAGGSLRLSCAASGSTFNGYAMGWYRQAPGKERELVAAISKRGGSTYYADSVKGRFTISRDNAKNTVYLQMNSLKPEDTAVYYCAARNPTKYLMDYWGKGTQVTVSS | high polyreactivity |
| QVQLVESGGGLVQAGGSLRLSCAASGSTFNIYVMGSYREPPGKERELVAAITTSGRTYYADSVKGRFTISRDNAKNTVYLQMNSLKPEDNAVYYCAAATGTYGRGGYYWGQGTQVTVSS | high polyreactivity |
| QVQLVESGGGLVQAGGSLRLSCAASGSTFNLYAMGWYRPAPGKERELVAAISRGGSTYYADSVKGRFTISRDNAKNTVYLQMNSLKPEDTAVYYCAARSWYDRYPYYSWGQGTQVTVSS | high polyreactivity |
| QVQLVESGGGLVQAGGSLRLSCAASGSTFNLYAMGWYRQAHGKERELVADITWSGGSTYYADSVKWRFTISRDNAKKTFYLQMNSLKPEDTAVYYCAAYGLSWGGYDYWGQATQVTVSS | low polyreactivity |
| QVQLVESGGGLVQAGGSLRLSCAASGSTFNNYGMGWYTQAPGTERELVAAITKSGGITYYADSVKGRFTISRDNAKNTVYLQMNRLKREDTAVYYCAAAYTIYWFSYRVLYYYWGQGTQVTVSS | low polyreactivity |
| QVQLVESGGGLVQAGGSLRLSCAASGSTFNPYTMGWPRQAPGKERELVATITRIGGSTYYADSVKGRFTISRDNAKNTVDLQMNSLKPEDNAVYYCAADHYRSVRWRSDYTYRVNYWGQGTQVTVSS | high polyreactivity |
| QVQLVESGGGLVQAGGSLRLSCAASGSTFNRNAMGWYRQAPGKERELVAAISWRGDSTSYADSVKGRFTISRDNAKNTVYLQMNSLKPEDTAVYYCATAHDYAFYRYWYVPSEYNYWGQGSQVTVSS | low polyreactivity |
| QVQLVESGGGLVQAGGSLRLSCAASGSTFNRNGMGWYRQAPGKERELVAAISRSTTSTYYADSVKGRFTISRDNAKNTVYLQMNSLKPEDTAVYYCATPHRYRVDYWGQGTQVTVSS | high polyreactivity |
| QVQLVESGGGLVQAGGSLRLSCAASGSTFNRYAMGWYRQAPGKERELVAAISWNGGSTYYADSVKGRFTSSRDNAKNTVYLQMNSLKPEDTAVYYCATLVRKYDGFNYWGQGTQVTVSS | high polyreactivity |
| QVQLVESGGGLVQAGGSLRLSCAASGSTFNRYAMGWYRQAPGKERELVASISWGGGRTYYADSVKGRFTISRDNAKNTVYLQMNSLKPEDTAVYYCATDRYYRHYEVDYWGQGTQVTVSS | low polyreactivity |
| QVQLVESGGGLVQAGGSLRLSCAASGSTFNSNAMGWYRQAPGKERELVASITWTDVSTYYADSVKGRFTISRDNAKNTVYLQMNSLKPEDTAVYYCAAVTGLSSNDGYDYWGQGTQVTVSS | low polyreactivity |
| QVQLVESGGGLVQAGGSLRLSCAASGSTFNWYAMGWYRQAPGKERELVAAISSGGNTNYADSVKGRFTISRDNAKNTVYLQMNSLKPEDTAVYYCAARYPYKHLAWSTSKRFGYWGQGTQVTVSS | low polyreactivity |
| QVQLVESGGGLVQAGGSLRLSCAASGSTFNYYAMGGNRQAPGKESELVAAISTRGSSTSYADSVKGRFTISRDNAKNTVYLQMNSLKPEDTAVYYCTAPRWSPRRYGYWGQGTQVTVSS | high polyreactivity |
| QVQLVESGGGLVQAGGSLRLSCAASGSTFPFNAMGWYRQAPGKERELVAAITTSAGSTYYADSVKGRFTISRDNAKKTVYLQMNSLKPEDTAVYYCAARYVPPWGRRYYYWGQGTQVTVSS | high polyreactivity |
| QVQLVESGGGLVQAGGSLRLSCAASGSTFPFNAMGWYRQAPGKERELVAVITYSGGSTYYADSVKGRFTISRDNAKNTVYLHMNSLKPVVTAVYYCAADVYYWGSTYYYWGLGTQVTVSS | high polyreactivity |
| QVQLVESGGGLVQAGGSLRLSCAASGSTFPFYVMGWYRQAPGKERELVASIRGTGGNTYYADSVKGRFTISRDNAKNTVYLQMNSLKPEDTAVYYCNAVYRLSHYDLDYWGQGTQVTVSS | high polyreactivity |
| QVQLVESGGGLVQAGGSLRLSCAASGSTFPGNAMGWYRQAPGKERELVAAINWSGDSTYYADSVKGRFTISRDNAKNTVYLQMNSLKPEDTAVYYCAAYGVGYYYWGQGTQVTVSS | low polyreactivity |
| QVQLVESGGGLVQAGGSLRLSCAASGSTFPGNAMGWYRQAPGKERELVAAITSTGTTYYADSVKGRFTISRDNAKNTVYLQMNSLKPEDTAVYYCNADPSPDPSTFDYWGQGTQVTVSS | low polyreactivity |

| Sequence | polyreactivity (PSR sort gate) |
| --- | --- |
| QVQLVESGGGLVQAGGSLRLSCAASGSTFPGNAMGWYRQAPGKERELVASIRRSGGSTYYADSVKGRFTISRDNAKNTVYLQMNSLKPEDTAVYYCAKRTFLVSGPRSYGWYGVYYWGQGTQVTVSS | high polyreactivity |
| QVQLVESGGGLVQAGGSLRLSCAASGSTFPGYAMGWYRQAPGKERELVAAITAGGGSTYYADSVKGRFTISRDNAKNSVYLLMKSLKPEDTAVYYCAKRYSYYGWRRYDYWGQGTQVTVSS | high polyreactivity |
| QVQLVESGGGLVQAGGSLRLSCAASGSTFPGYAMGWYRQAPGKERELVAAITTSGGSTYYADSVKGRFTISRDNAKNTVYLQMNSLKPEDTAVYYCAADYWYYLDAGYYWGQGTQVTVSS | low polyreactivity |
| QVQLVESGGGLVQAGGSLRLSCAASGSTFPGYAMGWYRQAPGKERELVASIYTGGSTYYADSVKGRFTISRDNAKKTVYLQMHSLKPEDSAVYYCAADSYNVSSLMYYWGQGTQVTVSS | low polyreactivity |
| QVQLVESGGGLVQAGGSLRLSCAASGSTFPINAMGWYRQAPGKERELVACISSGGSTDYADSVKGRFTISRVNAKNTVYLQMNSLKAEHTAVYYWAAVRGPSLVTKYPHDYWGQGTQVTVSS | low polyreactivity |
| QVQLVESGGGLVQAGGSLRLSCAASGSTFPINTMGWYRQAPGKERELVAAITHSGGRTYYADSVKGRFTISRVNAKNTVYLQMNSLKPEDTAVYYCNAVRYYAVRVSDGDYDYWGQGTQVTVSS | low polyreactivity |
| QVQLVESGGGLVQAGGSLRLSCAASGSTFPKYAMGWYRQAPGKERELVAAISWYGGRTYYADSVKGRFTISRDNAKHTVYLQMNSLKPEDTAVYYCAASIPGTRSDGYWGQGTQVTVSS | low polyreactivity |
| QVQLVESGGGLVQAGGSLRLSCAASGSTFPKYAMGWYRQAPGKERELVALITSSTGTTYYADSVKGRFTISRDNAKNTVYLQMNSLKPEDTAVYYCNARVRYREWGLYYWGQGTQVTVSS | high polyreactivity |
| QVQLVESGGGLVQAGGSLRLSCAASGSTFPKYAMGWYRQAPGKERELVASISVTTGSTYYADSVKGRFTISRDNAKNTVYLQMNSLKPEDTAVYYCAARRGWGDDYWGQGTQVTVSS | high polyreactivity |
| QVQLVESGGGLVQAGGSLRLSCAASGSTFPLYAMGWYRQAPGKDRELVAAITWSGANTYYADSVKGRFTISRDNAKNTVSLQMNSLKPEDTAVYYCAAGSYAGFAVIGYYYWGQGTQVTVSS | low polyreactivity |
| QVQLVESGGGLVQAGGSLRLSCAASGSTFPPNAMGWYRQAPGKERELVAVISNGGSNTRYADSVKGRFTISRDIAKNTVYLQMNSLKPEDTAVYYCAADYEYSGYGYWGQGTQVTVSS | high polyreactivity |
| QVQLVESGGGLVQAGGSLRLSCAASGSTFPPNAMGWYRQAPGKERELVAVISYSDGSTYYADSVKGRFTISRDNAKNTVYLQMNSLKPEDTAVYYCAAYSGYGGVSMYYWGQGTQVTGSS | low polyreactivity |
| QVQLVESGGGLVQAGGSLRLSCAASGSTFPPNGMGWYRQAPGKERELVAAIRWRGGSTYYADSVKGRFTISRDNAKNTVYLQMNSLKPEDTAVYYCAKYVTYSRPTNSPSGKHVYWGQGTQVTVSS | low polyreactivity |
| QVQLVESGGGLVQAGGSLRLSCAASGSTFPPYAMGRYRQAPGKERELVAAIDWSDGTTYYADSVKGRFTISRDYAKNTVYLQMNSLKPEDTAVYYCAGSLSQSEYDYWGQGTQVTVSS | low polyreactivity |
| QVQLVESGGGLVQAGGSLRLSCAASGSTFPPYAMGWYRQAPGKEREFVARISWTGGSTYYADSVKGRFTISRDNAKNTVYLQMNCLKPEDTAVYYCAAKSYWGQGTQVTVSS | high polyreactivity |
| QVQLVESGGGLVQAGGSLRLSCAASGSTFPPYAMGWYRQAPGKERELVADITRRGASTYYADSVKGRFTISRDNAKNTVYLQMNSLKPEDTAVYYCNAGRSRRYRIGRYYYWGQGTQVTVSS | high polyreactivity |
| QVQLVESGGGLVQAGGSLRLSCAASGSTFPQNVMGWYRQAPGKERELVAAITRSAGSTYYADSVKGRFTISRDNAKNTVYLQMNSLKPEDTAVYYCNTGRQRGDGWGQGTQVTVSS | high polyreactivity |
| QVQLVESGGGLVQAGGSLRLSCAASGSTFPQYAMGWYRQAPGKERELVAAISFSGGSTYYADSVKGRFTISRDNAKNTVYLQMNSLKPEDTAVYYCAAELGLAQYYYWGQGTQVTVSS | low polyreactivity |
| QVQLVESGGGLVQAGGSLRLSCAASGSTFPRNAMVWYIQAPGKERELVAAISRRGGSTYYADSVKGLFTISRDNAKNTVYLQMNSLKPEDTAVYYCAAATRYAIYGRYSRYDYWGQGTQVTVSS | high polyreactivity |
| QVQLVESGGGLVQAGGSLRLSCAASGSTFPRYAMGWYRQAPGKERELVAAMSSSGGRTYYADSVKGRFTISRDNAKNTVYLQMNSLKPEDTAVYYCAARAFKTIIYDYWGQGTQVTVSS | high polyreactivity |
